In paper PMC10714720:

Tested on: T1, QseB (rQseB) (Glaesserella parasuis serovar 5 strain CF7066), ORF:6fe33d28
T1 sequence: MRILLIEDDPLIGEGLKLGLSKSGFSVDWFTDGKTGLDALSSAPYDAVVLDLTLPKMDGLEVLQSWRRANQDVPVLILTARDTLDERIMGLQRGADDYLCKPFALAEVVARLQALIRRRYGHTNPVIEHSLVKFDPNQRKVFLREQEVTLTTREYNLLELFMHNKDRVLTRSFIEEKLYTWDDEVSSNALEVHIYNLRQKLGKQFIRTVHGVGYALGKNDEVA
Experiment: EMSA
Details: 50 mM Tris, 10 mM MgCl2, 0.1 mM DTT

AAATTGCTCCTAGTGTTTATTAGTAAAAGCATTATTGCTTTGTTGAGTGTATTAAAACAGAGAAATCTTAAGAAAGTCTTAAGATAAAAAAATTTATTTTTAGACAAAATCTAATAAAAAAGCGGCAAGATTCGTAAATCCTACCGCTTAGATCACATTATGAAAAAATTAGAATCTATAGTTTGCCCCAATAA (double strand) [qseB promoter (Cy5.5-qseB)]
binding: binds

GAAGAACTTACGCTGAGTTGTTTAAATAGCTCGTTGAGCAAGGTGAATCCTCAGAAGAGTATGTCGAAGTAATGGGGCATATGCAAGTAGAAATAGATTTAGAAATGATCAAAACCTGAATCTGAAATATTATTTTAAATATATAGTCTTAACTGTCTTAGGAAAAGGCAGTAGAGATAGGATGAGATAACAGT (double strand) [capD promoter (Cy5.5-capD)]
binding: binds
